Results published in patent US20220281949A1.

How the values were obtained:
DR1-restricted TCR HA1.7 [1] = assay: flow cytometry: HA1.7-transduced primary CD4+ T cells stained with PE DR1 dimer and anti-CD4
DR1-restricted TCR HA1.7 [2] = assay: as above; remark: listed apart in the source
DR1-restricted TCR HA1.7 [3] = assay: flow cytometry: TCR-transduced primary human T cells stained with PE class II dimer and anti-CD4

DR1^L114W/V143M+2reps dimer specific to Flu-HA306-318 (peptide-MHC)
percent of cells in the dimer+ CD4+ quadrant (DR1-restricted TCR HA1.7 [1]): 48.9%
percent of cells in the dimer+ CD4+ quadrant (DR1-restricted TCR HA1.7 [2]): 53%
percent of cells in the dimer+ CD4+ quadrant (DR1-restricted TCR HA1.7 [3]): 9.1%

DR1^L114W/V143M dimer with the cognate peptide of TCR HA1.7 (peptide-MHC)
percent of cells in the dimer+ CD4+ quadrant (DR1-restricted TCR HA1.7 [1]): 1.5%
